Reference: the supplement of paper PMC9732359
± gives the uncertainty stated by the source.

Test: protein stability index of a GFP-peptide fusion (yeast GPS) (PSI 1-4); higher = more stable; sorted into four equal gates, so the index is relative within each strain
Summary of the method: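 Peptides tiling yeast proteins in 17-residue segments were fused downstream of GFP, with Cherry expressed from the same plasmid. As a pooled library in yeast, mid-log cultures grown in leucine-free medium were sorted into four equal gates by GFP/Cherry fluorescence ratio. Gate plasmids were PCR-amplified and Illumina-sequenced, and barcodes linked reads to strains. Each peptide received a protein stability index equal to the sum of each gate's read frequency times its gate number.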

## PRFNRENKVSPADAAKK [RPS26A]
doa10∆
  protein stability index: 3.45 ± 0.18
pdr5∆
  protein stability index: 2.73 ± 0.17
san1∆
  protein stability index: 2.98 ± 0.075
ubr1∆
  protein stability index: 2.89 ± 0.12

## VENLTVAQECIAFLKKQ [SMC1]
doa10∆
  protein stability index: 2.12 ± 0.065
pdr5∆
  protein stability index: 2.47 ± 0.07
san1∆
  protein stability index: 2.42 ± 0.086
ubr1∆
  protein stability index: 1.98 ± 0.051

## TLGVVGKSEKLSLLLVE [SKI6]
doa10∆
  protein stability index: 2.8 ± 0.051
pdr5∆
  protein stability index: 3.04 ± 0.048
san1∆
  protein stability index: 3.11 ± 0.035
ubr1∆
  protein stability index: 2.96 ± 0.049

## SHPEKRMIPPRMVRSIM [SSN3]
doa10∆
  protein stability index: 3.25 ± 0.1
pdr5∆
  protein stability index: 3.01 ± 0.075
san1∆
  protein stability index: 2.33 ± 0.065
ubr1∆
  protein stability index: 3.19 ± 0.066

## GRICRPLIIVSDGQSRV [RET1]
doa10∆
  protein stability index: 2.06 ± 0.045
pdr5∆
  protein stability index: 2.11 ± 0.037
san1∆
  protein stability index: 1.75 ± 0.059
ubr1∆
  protein stability index: 2.16 ± 0.038

## GKMNNEVSTSTSMTGDA [SWI3]
doa10∆
  protein stability index: 3.49 ± 0.076
pdr5∆
  protein stability index: 3.3 ± 0.069
san1∆
  protein stability index: 3.2 ± 0.054
ubr1∆
  protein stability index: 3.15 ± 0.053

## RLGSKKLVEIIWNDVVY [YJL039C/NUP192]
doa10∆
  protein stability index: 3.4 ± 0.17
pdr5∆
  protein stability index: 3.43 ± 0.12
san1∆
  protein stability index: 3.46 ± 0.082
ubr1∆
  protein stability index: 3.35 ± 0.08

## PHHNQSPRNTYQCAMGK [RET1]
doa10∆
  protein stability index: 2.68 ± 0.17
pdr5∆
  protein stability index: 2.97 ± 0.14
san1∆
  protein stability index: 3 ± 0.14
ubr1∆
  protein stability index: 2.89 ± 0.24

## SYLETLTALGKEKEKER [MED2]
doa10∆
  protein stability index: 2.57 ± 0.16
pdr5∆
  protein stability index: 1.93 ± 0.12
san1∆
  protein stability index: 2.34 ± 0.17
ubr1∆
  protein stability index: 2.92 ± 0.057

## LKFNSTEYRGTLVSTDN [SMX3]
doa10∆
  protein stability index: 1.74 ± 0.04
pdr5∆
  protein stability index: 2.59 ± 0.049
san1∆
  protein stability index: 2.27 ± 0.067
ubr1∆
  protein stability index: 2.25 ± 0.041

## ALMRCSFEETVEILFEA [RPO21]
doa10∆
  protein stability index: 3.12 ± 0.082
pdr5∆
  protein stability index: 2.6 ± 0.079
san1∆
  protein stability index: 3.06 ± 0.062
ubr1∆
  protein stability index: 2.85 ± 0.069

## SSQFVRLASEPGIISIT [YMR129W/POM152]
doa10∆
  protein stability index: 2.04 ± 0.094
pdr5∆
  protein stability index: 2.14 ± 0.062
san1∆
  protein stability index: 1.99 ± 0.12
ubr1∆
  protein stability index: 1.78 ± 0.04

## LHPYVPSSKPQEQVYPD [SRB8]
doa10∆
  protein stability index: 2.81 ± 0.24
pdr5∆
  protein stability index: 2.92 ± 0.12
san1∆
  protein stability index: 3.08 ± 0.093
ubr1∆
  protein stability index: 3.25 ± 0.15

## RPLPQWIRLRTNNTIRY [RPL39]
doa10∆
  protein stability index: 1.85 ± 0.056
pdr5∆
  protein stability index: 1.81 ± 0.054
san1∆
  protein stability index: 1.5 ± 0.067
ubr1∆
  protein stability index: 1.62 ± 0.052

## STKIIMLLLNDSVENSS [SRB8]
doa10∆
  protein stability index: 2.63 ± 0.074
pdr5∆
  protein stability index: 2.15 ± 0.07
san1∆
  protein stability index: 2.6 ± 0.077
ubr1∆
  protein stability index: 2.74 ± 0.088

## NIVHNFKERQMMVSYPK [AAR2]
doa10∆
  protein stability index: 3.04 ± 0.13
pdr5∆
  protein stability index: 2.33 ± 0.1
san1∆
  protein stability index: 1.9 ± 0.15
ubr1∆
  protein stability index: 2.19 ± 0.18

## GNLSKREIQIDAVLKIF [SRB8]
doa10∆
  protein stability index: 2.75 ± 0.065
pdr5∆
  protein stability index: 2.83 ± 0.063
san1∆
  protein stability index: 2.99 ± 0.063
ubr1∆
  protein stability index: 2.68 ± 0.049

## RPDGVHVINVGKTWEKL [RPS0A]
doa10∆
  protein stability index: 3.33 ± 0.12
pdr5∆
  protein stability index: 3.41 ± 0.15
san1∆
  protein stability index: 3.4 ± 0.13
ubr1∆
  protein stability index: 3.04 ± 0.081

## DSKLLPKNIEPPLTSQY [SWI3]
doa10∆
  protein stability index: 2.89 ± 0.058
pdr5∆
  protein stability index: 2.91 ± 0.049
san1∆
  protein stability index: 2.92 ± 0.041
ubr1∆
  protein stability index: 2.92 ± 0.04

## IPAAGNNRSVSMQTIAE [SRB5]
doa10∆
  protein stability index: 3.09 ± 0.078
pdr5∆
  protein stability index: 3.12 ± 0.087
san1∆
  protein stability index: 3.22 ± 0.081
ubr1∆
  protein stability index: 3.3 ± 0.07

## QFASPVRWIETQDVFLK [FAS2]
doa10∆
  protein stability index: 2.3 ± 0.026
pdr5∆
  protein stability index: 2.06 ± 0.022
san1∆
  protein stability index: 2.25 ± 0.027
ubr1∆
  protein stability index: 2.195 ± 0.018

## TIEDIAVAITRASKLKI [RPO31]
doa10∆
  protein stability index: 1.63 ± 0.081
pdr5∆
  protein stability index: 1.76 ± 0.063
san1∆
  protein stability index: 2.1 ± 0.12
ubr1∆
  protein stability index: 1.97 ± 0.06

## SKGYVKTQFSWQYYYYT [RPS10A]
doa10∆
  protein stability index: 2.81 ± 0.077
pdr5∆
  protein stability index: 2.54 ± 0.06
san1∆
  protein stability index: 2.76 ± 0.05
ubr1∆
  protein stability index: 2.92 ± 0.056

## WPQSKNCEYEDPPNEGD [RPB3]
doa10∆
  protein stability index: 3.45 ± 0.25
ubr1∆
  protein stability index: 3.2 ± 0.14

## YTANTSAQSIASAKSVR [YAR002W/NUP60]
doa10∆
  protein stability index: 2.64 ± 0.088
pdr5∆
  protein stability index: 2.93 ± 0.11
san1∆
  protein stability index: 2.65 ± 0.09
ubr1∆
  protein stability index: 2.71 ± 0.12

## VEKGVNPTKSKEILDNI [ECM29]
doa10∆
  protein stability index: 3.26 ± 0.14
pdr5∆
  protein stability index: 3.5 ± 0.12
san1∆
  protein stability index: 3.37 ± 0.25
ubr1∆
  protein stability index: 3.62 ± 0.14

## LIKNGKKVTAFVPNDGC [RPS23A]
doa10∆
  protein stability index: 3.03 ± 0.11
pdr5∆
  protein stability index: 3.31 ± 0.061
san1∆
  protein stability index: 3.45 ± 0.039
ubr1∆
  protein stability index: 3.38 ± 0.054

## GDPALVYKFMSLAKSSA [ECM29]
doa10∆
  protein stability index: 3.22 ± 0.11
pdr5∆
  protein stability index: 2.77 ± 0.08
san1∆
  protein stability index: 2.54 ± 0.089
ubr1∆
  protein stability index: 3.09 ± 0.054

## KVSAREKSAYKFFHNGM [FAS2]
doa10∆
  protein stability index: 3.5 ± 0.14
pdr5∆
  protein stability index: 3.39 ± 0.14
san1∆
  protein stability index: 3.35 ± 0.099
ubr1∆
  protein stability index: 3.54 ± 0.13

## HTLALEFVNGGKVVKNV [RRP46]
doa10∆
  protein stability index: 2.2 ± 0.18
pdr5∆
  protein stability index: 2.22 ± 0.074
san1∆
  protein stability index: 2.19 ± 0.29
ubr1∆
  protein stability index: 2.14 ± 0.13

## KLFNRIVERETNWIIYP [CSN12]
doa10∆
  protein stability index: 2.81 ± 0.19
pdr5∆
  protein stability index: 3.48 ± 0.24
san1∆
  protein stability index: 2.85 ± 0.21

## QPQQQLGDMENNLEKYP [RTT102]
doa10∆
  protein stability index: 3.54 ± 0.092
pdr5∆
  protein stability index: 3.15 ± 0.12
san1∆
  protein stability index: 3.62 ± 0.077
ubr1∆
  protein stability index: 3.33 ± 0.1

## PKEPRLKSQMDTSKALL [SKI6]
pdr5∆
  protein stability index: 3.17 ± 0.18

## VKFLVYQGVYSMGSILL [YML031W/NDC1]
doa10∆
  protein stability index: 1.65 ± 0.091
pdr5∆
  protein stability index: 1.43 ± 0.088
san1∆
  protein stability index: 1.28 ± 0.099
ubr1∆
  protein stability index: 1.7 ± 0.17

## EFGADWYKVAKNVGNKS [SWI3]
doa10∆
  protein stability index: 3.35 ± 0.1
pdr5∆
  protein stability index: 3.34 ± 0.083
san1∆
  protein stability index: 3.35 ± 0.048
ubr1∆
  protein stability index: 3.3 ± 0.051

## SRNGDFPRTRFEAQIDS [RPN10]
doa10∆
  protein stability index: 3.09 ± 0.12
pdr5∆
  protein stability index: 3.28 ± 0.12
san1∆
  protein stability index: 3.34 ± 0.077
ubr1∆
  protein stability index: 3.23 ± 0.086

## GTGKTMLVKAVANSTKA [RPT3]
doa10∆
  protein stability index: 2.64 ± 0.19
pdr5∆
  protein stability index: 1.47 ± 0.1
san1∆
  protein stability index: 2.02 ± 0.096
ubr1∆
  protein stability index: 1.31 ± 0.13

## KPSFSFGVPNSSKNETS [YLR335W/NUP2]
doa10∆
  protein stability index: 2.13 ± 0.077
pdr5∆
  protein stability index: 1.64 ± 0.082
san1∆
  protein stability index: 2.46 ± 0.098
ubr1∆
  protein stability index: 1.5 ± 0.059

## RDQGNDSLNDDLNKENK [YIL149C/MLP2]
doa10∆
  protein stability index: 3.23 ± 0.18
san1∆
  protein stability index: 3.01 ± 0.15
ubr1∆
  protein stability index: 3.32 ± 0.063

## PQGSTTNGGLFGSGTQN [YGR119C/NUP57]
doa10∆
  protein stability index: 3.12 ± 0.073
pdr5∆
  protein stability index: 3.27 ± 0.058
san1∆
  protein stability index: 3.3 ± 0.042
ubr1∆
  protein stability index: 3.015 ± 0.029

## ADLERFFLSIYFFYASR [YJL039C/NUP192]
doa10∆
  protein stability index: 1.68 ± 0.073
pdr5∆
  protein stability index: 1.12 ± 0.13
san1∆
  protein stability index: 1.22 ± 0.12
ubr1∆
  protein stability index: 1.55 ± 0.072

## SVEEVILERAYKKLDID [SNF2]
doa10∆
  protein stability index: 3.23 ± 0.16
pdr5∆
  protein stability index: 3.07 ± 0.24
san1∆
  protein stability index: 2.95 ± 0.13

## ISPDPNLSIDEVAVPDR [RPO31]
doa10∆
  protein stability index: 2.87 ± 0.089
pdr5∆
  protein stability index: 2.76 ± 0.084
san1∆
  protein stability index: 3.23 ± 0.069
ubr1∆
  protein stability index: 2.95 ± 0.049

## TRNITDYSINSRYEPKV [PRE7]
doa10∆
  protein stability index: 2.62 ± 0.053
pdr5∆
  protein stability index: 2.7 ± 0.049
san1∆
  protein stability index: 2.99 ± 0.046
ubr1∆
  protein stability index: 2.88 ± 0.047

## SYELIKEECQIEDDGII [CSN9]
doa10∆
  protein stability index: 2.77 ± 0.11
pdr5∆
  protein stability index: 3.01 ± 0.088
san1∆
  protein stability index: 3.06 ± 0.069
ubr1∆
  protein stability index: 3.1 ± 0.054

## QRDLYKRKEELVSTLTT [SMC2]
doa10∆
  protein stability index: 2.14 ± 0.073
pdr5∆
  protein stability index: 1.91 ± 0.063
san1∆
  protein stability index: 2.64 ± 0.071
ubr1∆
  protein stability index: 1.82 ± 0.053

## IADLDTEAEETSIHSTI [RRP43]
doa10∆
  protein stability index: 3.76 ± 0.18
pdr5∆
  protein stability index: 2.56 ± 0.17
san1∆
  protein stability index: 3.54 ± 0.11
ubr1∆
  protein stability index: 3.38 ± 0.15

## HIQEEEEQDVDMTGDEE [RPC19]
doa10∆
  protein stability index: 3.38 ± 0.15
pdr5∆
  protein stability index: 3.35 ± 0.13
san1∆
  protein stability index: 3.05 ± 0.075
ubr1∆
  protein stability index: 3.27 ± 0.063

## RYSRQFINNVLSNPSNQ [GRR1]
doa10∆
  protein stability index: 2.28 ± 0.08
pdr5∆
  protein stability index: 2.45 ± 0.082
san1∆
  protein stability index: 1.91 ± 0.1
ubr1∆
  protein stability index: 2.07 ± 0.076

## SKIIVFPRDGKAPEAEQ [RPL13B]
doa10∆
  protein stability index: 3.15 ± 0.085
pdr5∆
  protein stability index: 3.2 ± 0.08
san1∆
  protein stability index: 3.18 ± 0.058
ubr1∆
  protein stability index: 3.33 ± 0.052

## IHALAAKLLQENDTTLV [FAS1]
doa10∆
  protein stability index: 2.53 ± 0.13
pdr5∆
  protein stability index: 2.8 ± 0.14
san1∆
  protein stability index: 2.86 ± 0.12
ubr1∆
  protein stability index: 3.33 ± 0.18

## AAASLPSKKLKTEDGFV [RPC82]
doa10∆
  protein stability index: 3.21 ± 0.1
pdr5∆
  protein stability index: 3.09 ± 0.1
san1∆
  protein stability index: 2.84 ± 0.091
ubr1∆
  protein stability index: 3.04 ± 0.065
